T1: cCD137-mFc-Avi (cynomolgus; mouse, one biotin on the Avi sequence of each monomer (BirA); unbiotinylated in the SPR of Example 5.6)
T1 construct: also called cyno CD137-mFc-Avi; dimeric cynomolgus CD137; not shown: mouse IgG2a Fc domain (mIgG2a Fc)
T1 chain: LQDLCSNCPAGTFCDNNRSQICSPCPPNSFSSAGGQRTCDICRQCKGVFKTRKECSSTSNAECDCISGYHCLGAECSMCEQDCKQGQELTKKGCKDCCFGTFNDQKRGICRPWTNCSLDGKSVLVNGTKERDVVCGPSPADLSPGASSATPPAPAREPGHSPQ

T2: human OX40 (human, UniProt P43489 29-216, limits assumed)
T2 sequence (looked up): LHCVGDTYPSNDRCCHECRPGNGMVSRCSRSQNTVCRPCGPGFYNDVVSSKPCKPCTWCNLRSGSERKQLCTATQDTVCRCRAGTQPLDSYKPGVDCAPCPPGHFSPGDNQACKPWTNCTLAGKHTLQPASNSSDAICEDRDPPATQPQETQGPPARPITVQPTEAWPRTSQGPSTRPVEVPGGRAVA

T3: human GITR (human, UniProt Q9Y5U5 26-161, limits assumed)
T3 sequence (looked up): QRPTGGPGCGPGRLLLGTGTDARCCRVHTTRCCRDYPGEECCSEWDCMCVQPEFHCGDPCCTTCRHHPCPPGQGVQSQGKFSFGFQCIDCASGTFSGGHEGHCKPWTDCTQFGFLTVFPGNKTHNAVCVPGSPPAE


Columns and labels:
[1] = molecular target: T4, hCD137-mFc-Avi (human; mouse, UniProt Q07011 24-186, one biotin on the Avi sequence of each monomer (BirA); unbiotinylated in the SPR of Example 5.6); test: SPR (Biacore), mAb2 captured by anti-human Fab, antigen in solution, 1:1 Langmuir
T4 construct: Made in-house in HEK293-6E; also called human CD137-mFc-Avi; dimeric human CD137; not shown: mouse IgG2a Fc domain (mIgG2a Fc)
T4 sequence (Q07011 24-186): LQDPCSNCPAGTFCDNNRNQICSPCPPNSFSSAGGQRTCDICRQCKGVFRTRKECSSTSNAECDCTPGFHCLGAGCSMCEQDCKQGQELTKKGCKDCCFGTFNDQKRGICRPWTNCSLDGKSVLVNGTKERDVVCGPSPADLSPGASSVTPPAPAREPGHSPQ
Description: (§1) An anti-human Fab capture antibody was immobilised on all four flow cells of a CM5 series S chip (GE Healthcare #BR-1005-30) to an average surface density of 6000 RU following the manufacturer's recommendations (GE Healthcare, human Fab capture Kit, #28958325). IEach mAb² was captured to approximately 150 RU by injecting a 3 μg/ml solution of mAb² diluted in HBS-EP+ buffer (GE Healthcare #BR1006-69) for 60 seconds at 30 μl/min. Then different concentrations of human, cyno or mouse CD137 antigen (unbiotinylated human, cyno or mouse CD137-mFc-Avi or human CD137-Avi-His) in HBS-EP+ buffer were flowed over the chip for 3 min at 60 μl/min and then allowed to dissociate for 10 minutes. After each antigen concentration the chip was regenerated by infecting 10 mM glycine pH 2.1 at a flow rate of 30 μl/min for 30 seconds. Buffer HBS-EP+ was injected before the highest concentration of antigen and after the lowest concentration of antigen for reference subtraction, and one of the concentrations at random was repeated twice. The binding kinetics were fit with a 1:1 Langmuir model to generate equilibrium binding constants (KD) for each sample. Data analysis was performed with BiaEvaluation software version 3.2.

[2] = molecular target: T1, cCD137-mFc-Avi; test: as above
Description: as §1

[3] = molecular target: T5, human CD137, full length, on cells (human, UniProt Q07011 24-255); test: cell-based or functional assay
T5 sequence (Q07011 24-255): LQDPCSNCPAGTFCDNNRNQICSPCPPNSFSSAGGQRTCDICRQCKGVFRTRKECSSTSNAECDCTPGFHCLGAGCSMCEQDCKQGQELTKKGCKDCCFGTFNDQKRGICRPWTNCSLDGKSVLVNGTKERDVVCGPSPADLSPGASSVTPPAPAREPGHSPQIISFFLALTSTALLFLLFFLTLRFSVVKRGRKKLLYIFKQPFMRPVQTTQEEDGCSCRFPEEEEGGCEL

[4] = molecular target: T6, mouse CD137, full length, on cells (mouse, UniProt P20334 24-256); test: cell-based or functional assay
T6 sequence (P20334 24-256): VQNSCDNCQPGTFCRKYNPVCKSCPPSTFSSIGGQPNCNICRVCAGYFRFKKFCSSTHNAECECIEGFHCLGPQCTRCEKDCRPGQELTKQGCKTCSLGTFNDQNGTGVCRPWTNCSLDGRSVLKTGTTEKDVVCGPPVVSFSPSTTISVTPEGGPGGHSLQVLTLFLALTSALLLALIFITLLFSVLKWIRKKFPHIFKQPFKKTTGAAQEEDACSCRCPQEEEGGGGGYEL

[5] = molecular target: T6, mouse CD137, full length, on cells; test: cell-based or functional assay; remark: listed apart in the source
[6] = molecular target: T5, human CD137, full length, on cells; test: cell-based or functional assay; remark: listed apart in the source
[7] = molecular target: T4, hCD137-mFc-Avi; test: SPR (Biacore T200), mAb2 captured by anti-human Fab, hCD137-mFc in solution, 1:1 Langmuir
Description: For the hCD137-mFc-Avi antigen the following method was used: an anti-human Fab molecule was immobilised on a CM5 chip to a surface density of between 9,000 and 11,000 response units (RU). The antibodies were diluted to 4 μg/ml in HBS-EP buffer and captured by the anti-Fab molecule with a flow rate of […].
For mCD137-mFc-Avi binding kinetic determination, a different approach was used. […] The analysis of the data was done using the Biacore T200 evaluation software. Curves were subtracted against a blank flow cell and fitted using a 1:1 Langmuir binding model with mass transfer, setting RI to zero as constant and Rₘₐₓ to local.

[8] = molecular target: T7, hCD137-Avi-His (human, UniProt Q07011 24-186, single biotin on the Avi sequence (BirA); unbiotinylated in the SPR of Example 5.6); test: SPR (Biacore), mAb2 captured by anti-human Fab, antigen in solution, 1:1 Langmuir
T7 construct: also called human CD137-Avi-His; monomeric human CD137
T7 sequence (Q07011 24-186): as the sequence (Q07011 24-186) above
Description: as §1

[9] = molecular target: T2, human OX40; test: SPR (Biacore T200), receptor amine-coupled to CM5 chip
Description: (§2) The specificity of the anti-human CD137 Fcabs for human CD137 compared to other related TNFSFR family members was tested. 8 of the Fcabs were tested in mock mAb² (HeID1.3) format and measured by SPR in a Biacore T200 (GE Healthcare) by testing for binding to other human TNFRSF receptors: CD40, OX40 and GITR. Amine coupling (amine coupling kit, GE Healthcare, BR-1000-50) was used to coat human CD40, GITR and OX40 to approximately 1000 RU in Biacore CM5 chips (GE Healthcare, cat no 29149603). […] The chip was regenerated by injection of 10 mM glycine pH 2.5 for 12 s at 30 μl/min. Antibodies specific to the different TNFRSF members were used as positive controls to verify Biacore chip coating. Data was double reference subtracted and analysed using BIAevaluation 3.2 software.

[10] = molecular target: human CD40 (human, UniProt P25942 21-193); test: as above
Sequence of human CD40 (P25942 21-193 limits assumed): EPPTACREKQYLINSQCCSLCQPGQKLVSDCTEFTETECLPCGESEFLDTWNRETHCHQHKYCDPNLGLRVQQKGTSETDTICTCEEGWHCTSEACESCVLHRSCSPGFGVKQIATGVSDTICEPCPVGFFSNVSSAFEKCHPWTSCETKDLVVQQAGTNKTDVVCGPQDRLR
Description: as §2

[11] = molecular target: T3, human GITR; test: as above
Description: as §2

[12] = molecular target: T5, human CD137, full length, on cells; test: cell-based or functional assay; remark: listed apart in the source

Binder | Kd [1] | Kd [2] | NF-kB luciferase reporter (HEK.FRT.luc.hCD137), signal with against without Protein L [3] | IL-2 release, mouse CD137 DO11.10 T cell activation assay, Protein L: +XL EC50 [4] | IL-2 release, mouse CD137 DO11.10 T cell activation assay, Protein L: +XL Emax [4] | IL-2 release, mouse CD137 DO11.10 T cell activation assay: EC50 against that of FS22-053-014 [5] | IL-2 release, human CD137 DO11.10 T cell activation assay, Protein L: +XL EC50 [6] | Kd [7] | koff [7] | kon [7] | Human monomeric CD137 KD fold difference relative to human dimeric KD [8] | binding result [9] | binding result [10] | binding result [11] | NF-kB signalling, HEK.FRT.luc.hCD137, +XL (EC50 nM) [12]
FS22-053/HelD1.3 (bispecific antibody, human IgG1, kappa, Mock mAb^2, IgG1 without LALA; also called FS22-053/HeID1.3) heavy: QVQLQESGPGLVRPSQTLSLTCTVSGSTFSGYGVNWVRQPPGRGLEWIGMIWGDGNTDYNSALKSRVTMLVDTSKNQFSLRLSSVTAADTAVYYCARERDYRLDYWGQGSLVTVSSASTKGPSVFPLAPSSKSTSGGTAALGCLVKDYFPEPVTVSWNSGALTSGVHTFPAVLQSSGLYSLSSVVTVPSSSLGTQTYICNVNHKPSNTKVDKKVEPKSCDKTHTCPPCPAPELLGGPSVFLFPPKPKDTLMISRTPEVTCVVVDVSHEDPEVKFNWYVDGVEVHNAKTKPREEQYNSTYRVVSVLTVLHQDWLNGKEYKCKVSNKALPAPIEKTISKAKGQPREPQVYTLPPSRDELNPPYLFSNQVSLTCLVKGFYPSDIAVEWESNGQPENNYKTTPPVLDSDGSFFLYSKLTVYYNRWQDGNVFSCSVMHEALHNHYTQKSLSLSPG light: DIQMTQSPASLSASVGETVTITCRASGNIHNYLAWYQQKQGKSPQLLVYNAKTLADGVPSRFSGSGSGTQYSLKINSLQPEDFGSYYCQHFWSTPRTFGGGTKLEIKRTVAAPSVFIFPPSDEQLKSGTASVVCLLNNFYPREAKVQWKVDNALQSGNSQESVTEQDSKDSTYSLSSTLTLSKADYEKHKVYACEVTHQGLSSPVTKSFNRGEC | 38 nM | 34 nM | ≥ 10 fold | – | – | – | – | – | – | – | – | – | – | – | –
FS22-053-017/HelD1.3 (bispecific antibody, human IgG1, kappa, Mock mAb^2, IgG1 without LALA; also called FS22-053-17; FS22-053-017/HeID1.3) heavy: QVQLQESGPGLVRPSQTLSLTCTVSGSTFSGYGVNWVRQPPGRGLEWIGMIWGDGNTDYNSALKSRVTMLVDTSKNQFSLRLSSVTAADTAVYYCARERDYRLDYWGQGSLVTVSSASTKGPSVFPLAPSSKSTSGGTAALGCLVKDYFPEPVTVSWNSGALTSGVHTFPAVLQSSGLYSLSSVVTVPSSSLGTQTYICNVNHKPSNTKVDKKVEPKSCDKTHTCPPCPAPELLGGPSVFLFPPKPKDTLMISRTPEVTCVVVDVSHEDPEVKFNWYVDGVEVHNAKTKPREEQYNSTYRVVSVLTVLHQDWLNGKEYKCKVSNKALPAPIEKTISKAKGQPREPQVYTLPPSRDELNPPYLFSNQVSLTCLVKGFYPSDIAVEWESNGQPENNYKTTPPVLDSDGSFFLYSKLTVYHWRWLEGNVFSCSVMHEALHNHYTQKSLSLSPG light: DIQMTQSPASLSASVGETVTITCRASGNIHNYLAWYQQKQGKSPQLLVYNAKTLADGVPSRFSGSGSGTQYSLKINSLQPEDFGSYYCQHFWSTPRTFGGGTKLEIKRTVAAPSVFIFPPSDEQLKSGTASVVCLLNNFYPREAKVQWKVDNALQSGNSQESVTEQDSKDSTYSLSSTLTLSKADYEKHKVYACEVTHQGLSSPVTKSFNRGEC | – | – | – | 16.7 nM | 41000 pg/mL | ~8 fold | 0.82 nM | 4.59 nM | 0.000406 s⁻¹ | 88500 M⁻¹ s⁻¹ | – | – | – | – | –
FS22-172-003/HelD1.3 (bispecific antibody, human IgG1, kappa, Mock mAb^2, IgG1 without LALA) heavy: QVQLQESGPGLVRPSQTLSLTCTVSGSTFSGYGVNWVRQPPGRGLEWIGMIWGDGNTDYNSALKSRVTMLVDTSKNQFSLRLSSVTAADTAVYYCARERDYRLDYWGQGSLVTVSSASTKGPSVFPLAPSSKSTSGGTAALGCLVKDYFPEPVTVSWNSGALTSGVHTFPAVLQSSGLYSLSSVVTVPSSSLGTQTYICNVNHKPSNTKVDKKVEPKSCDKTHTCPPCPAPELLGGPSVFLFPPKPKDTLMISRTPEVTCVVVDVSHEDPEVKFNWYVDGVEVHNAKTKPREEQYNSTYRVVSVLTVLHQDWLNGKEYKCKVSNKALPAPIEKTISKAKGQPREPQVYTLPPSRDELPYIIPPYNQVSLTCLVKGFYPSDIAVEWESNGQPENNYKTTPPVLDSDGSFFLYSKLTVGADRWLEGNVFSCSVMHEALHNHYTQKSLSLSPG light: DIQMTQSPASLSASVGETVTITCRASGNIHNYLAWYQQKQGKSPQLLVYNAKTLADGVPSRFSGSGSGTQYSLKINSLQPEDFGSYYCQHFWSTPRTFGGGTKLEIKRTVAAPSVFIFPPSDEQLKSGTASVVCLLNNFYPREAKVQWKVDNALQSGNSQESVTEQDSKDSTYSLSSTLTLSKADYEKHKVYACEVTHQGLSSPVTKSFNRGEC | 1.5 nM | 1.3 nM | – | – | – | – | – | – | – | – | > 200 fold | no binding (tested: starting at 1 µM) | no binding (tested: starting at 1 µM) | no binding (tested: starting at 1 µM) | 32.6 nM
FS22-172-004/HelD1.3 (bispecific antibody, human IgG1, kappa, Mock mAb^2, IgG1 without LALA) heavy: QVQLQESGPGLVRPSQTLSLTCTVSGSTFSGYGVNWVRQPPGRGLEWIGMIWGDGNTDYNSALKSRVTMLVDTSKNQFSLRLSSVTAADTAVYYCARERDYRLDYWGQGSLVTVSSASTKGPSVFPLAPSSKSTSGGTAALGCLVKDYFPEPVTVSWNSGALTSGVHTFPAVLQSSGLYSLSSVVTVPSSSLGTQTYICNVNHKPSNTKVDKKVEPKSCDKTHTCPPCPAPELLGGPSVFLFPPKPKDTLMISRTPEVTCVVVDVSHEDPEVKFNWYVDGVEVHNAKTKPREEQYNSTYRVVSVLTVLHQDWLNGKEYKCKVSNKALPAPIEKTISKAKGQPREPQVYTLPPSRDELNYIYPPYNQVSLTCLVKGFYPSDIAVEWESNGQPENNYKTTPPVLDSDGSFFLYSKLTVGADRWLEGNVFSCSVMHEALHNHYTQKSLSLSPG light: DIQMTQSPASLSASVGETVTITCRASGNIHNYLAWYQQKQGKSPQLLVYNAKTLADGVPSRFSGSGSGTQYSLKINSLQPEDFGSYYCQHFWSTPRTFGGGTKLEIKRTVAAPSVFIFPPSDEQLKSGTASVVCLLNNFYPREAKVQWKVDNALQSGNSQESVTEQDSKDSTYSLSSTLTLSKADYEKHKVYACEVTHQGLSSPVTKSFNRGEC | 4.3 nM | 3.5 nM | – | – | – | – | – | – | – | – | > 200 fold | no binding (tested: starting at 1 µM) | no binding (tested: starting at 1 µM) | no binding (tested: starting at 1 µM) | 124 nM
